Experimental data taken from doi:10.1101/2020.08.27.268672 (bioRxiv, 2020).

Key:
[1] = biological target: Rel^NTD (purified, in solution) (Bacillus subtilis 168, UniProt O54408 1-391); assay: ITC
SEC-MALS = biological target: the molecule itself; assay: SEC-MALS

Sequence of Rel^NTD (purified, in solution) (O54408 1-391): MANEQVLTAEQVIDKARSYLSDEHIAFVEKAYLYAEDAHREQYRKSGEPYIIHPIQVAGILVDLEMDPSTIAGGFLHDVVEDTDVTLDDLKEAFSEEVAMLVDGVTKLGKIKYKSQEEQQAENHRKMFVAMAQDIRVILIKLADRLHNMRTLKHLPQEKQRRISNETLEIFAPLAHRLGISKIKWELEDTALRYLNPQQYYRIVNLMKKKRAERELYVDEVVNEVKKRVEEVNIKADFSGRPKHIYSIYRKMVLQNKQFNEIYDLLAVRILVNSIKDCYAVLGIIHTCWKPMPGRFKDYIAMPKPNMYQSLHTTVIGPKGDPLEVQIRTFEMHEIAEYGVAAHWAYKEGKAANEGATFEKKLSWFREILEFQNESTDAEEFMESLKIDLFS

B1: DarB (natural protein, Bacillus subtilis 168)
chain: ISLQSDQLLEATVGQFMIEADKVAHVQVGNNLEHALLVLTKTGYTAIPVLDPSYRLHGLIGTNMIMNSIFGLERIEFEKLDQITVEEVMLTDIPRLHINDPIMKGFGMVINNGFVCVENDEQVFEGIFTRRVVLKELNKHIRSLNK
- Kd [1]: 650 nM
- stoichiometry N [1]: 1
- stoichiometry N (SEC-MALS): 2
